Like-named read-outs stand apart in the source and are kept apart here.
How the values were obtained:
human CCL18 (human) [1] = biological target: human CCL18 (human) (UniProt P55774); assay: SAXS
human CCL18 (human) [2] = biological target: human CCL18 (human) (UniProt P55774); assay: SAXS; remark: listed apart in the source

Substance: human CCL18 (from UniProt P55774 21-89) (natural protein)
- percent of the population as dimer (human CCL18 (human) [1]): 28%
- percent of the population as hexamer (human CCL18 (human) [1]): 24%
- percent of the population as monomer (human CCL18 (human) [1]): 48%
- percent of the population as dimer (human CCL18 (human) [2]): 32%
- percent of the population as monomer (human CCL18 (human) [2]): 65%
- percent of the population as tetramer (human CCL18 (human) [2]): 3%

Reference: paper PMC4355285
